Results from US20230332136A1, “IL-17 RECEPTOR MODULATOR SCREENING SYSTEM” (New York University, priority 2022, published 2023).

How the values were obtained:
IL-17RA/RC = biological target: T1, IL-17RA/RC (Mus musculus, UniProt Q60943+Q8K4C2); assay: mADIR-17 dmCherry reporter assay in MEF cells (flow cytometry); assay type: cell-based
T1 construct: Full length IL-17RC in the purified ADIR system; expressed in transfected cells; host or cells: mouse embryonic fibroblasts (MEF), retrovirally transduced
T1 sequence (Q60943 32-864): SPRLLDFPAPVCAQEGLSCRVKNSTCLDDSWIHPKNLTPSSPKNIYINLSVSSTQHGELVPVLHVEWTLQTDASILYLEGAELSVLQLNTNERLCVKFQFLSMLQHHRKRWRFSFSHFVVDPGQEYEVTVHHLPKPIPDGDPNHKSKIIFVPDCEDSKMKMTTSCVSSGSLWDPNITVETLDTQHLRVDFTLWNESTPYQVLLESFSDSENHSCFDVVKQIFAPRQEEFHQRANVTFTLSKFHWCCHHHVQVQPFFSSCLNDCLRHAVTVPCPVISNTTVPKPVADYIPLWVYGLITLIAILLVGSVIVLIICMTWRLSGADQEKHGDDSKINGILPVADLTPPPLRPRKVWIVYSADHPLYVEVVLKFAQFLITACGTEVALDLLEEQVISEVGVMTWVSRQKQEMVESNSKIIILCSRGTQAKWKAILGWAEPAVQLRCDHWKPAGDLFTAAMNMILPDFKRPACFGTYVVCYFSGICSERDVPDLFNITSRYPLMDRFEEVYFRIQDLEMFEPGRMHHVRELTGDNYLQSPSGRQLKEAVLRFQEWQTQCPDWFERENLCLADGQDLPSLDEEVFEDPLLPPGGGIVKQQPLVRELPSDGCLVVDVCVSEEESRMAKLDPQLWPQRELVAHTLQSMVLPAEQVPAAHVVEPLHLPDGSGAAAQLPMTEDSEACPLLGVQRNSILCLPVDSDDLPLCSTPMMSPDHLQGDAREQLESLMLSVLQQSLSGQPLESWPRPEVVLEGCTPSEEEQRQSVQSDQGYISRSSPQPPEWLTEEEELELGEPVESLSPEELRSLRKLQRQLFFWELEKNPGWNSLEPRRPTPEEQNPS
T1 sequence (Q8K4C2 22-698): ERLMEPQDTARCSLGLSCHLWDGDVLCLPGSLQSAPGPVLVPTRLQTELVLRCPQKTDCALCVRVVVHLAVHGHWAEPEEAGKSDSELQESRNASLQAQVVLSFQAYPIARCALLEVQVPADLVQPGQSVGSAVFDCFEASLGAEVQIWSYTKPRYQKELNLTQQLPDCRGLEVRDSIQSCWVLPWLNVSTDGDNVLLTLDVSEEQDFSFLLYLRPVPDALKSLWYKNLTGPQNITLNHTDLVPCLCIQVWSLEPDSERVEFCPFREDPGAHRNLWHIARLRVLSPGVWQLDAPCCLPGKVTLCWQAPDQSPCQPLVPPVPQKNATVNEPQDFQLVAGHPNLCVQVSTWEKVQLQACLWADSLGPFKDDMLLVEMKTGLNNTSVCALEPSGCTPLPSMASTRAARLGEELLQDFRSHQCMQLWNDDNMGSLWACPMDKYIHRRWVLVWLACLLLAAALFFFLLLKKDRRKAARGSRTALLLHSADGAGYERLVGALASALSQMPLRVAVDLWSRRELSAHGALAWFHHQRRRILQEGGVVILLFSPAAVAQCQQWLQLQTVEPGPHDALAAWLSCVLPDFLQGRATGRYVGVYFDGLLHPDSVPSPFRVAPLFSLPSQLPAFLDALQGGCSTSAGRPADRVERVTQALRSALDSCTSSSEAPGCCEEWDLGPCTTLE
From the text: Unless defined otherwise herein, all technical and scientific terms used in this disclosure have the same meaning as commonly understood by one of ordinary skill in the art to which this disclosure pertains. Where the term “ADIR” is used herein it means ACT1-Dependent IL-17 Receptor Modulator Screening System. The preface “m” means mouse and the prefix “h” means human.
Mouse constructs were produced as depicted in the panels of FIG. 1. Human sequence constructs were produced as in the panels of FIG. 9, where mouse cDNA constructs were replaced by human cDNA constructed. In the mouse ADIR system exogenous IL-17RC was not provided because the cell line (mouse embryonic fibroblasts) have endogenous IL-17RC expression. In the hADIR system, human components used for the hADIR system (hRA, hRC, hRB, hAct1) were expressed from added polynucleotides.
The data reflected in the Figures utilized a reporter system specifically designed for Act1-dependent IL-17 signaling pathways. The reporter system is based at least in part on the principle that the engagement of active cognate ligands, and the interaction between Act1 and IL-17 receptors is required for active signaling of IL-17A/F, IL-17E, and IL-17C. The protein-protein-interaction (PPI) based reporter system is highly specific and easily scalable. The disclosure is illustrated using mouse and human systems. For the data presented in the Figures, the system comprised a three-part reporter system specifically designed for detecting IL-17A/F, IL-17E, and IL-17C signaling. The PPI-based reporter system provides for detecting active signaling, and is specific for each of the IL-17 family cytokines. The system that is responsive to binding of IL-17A and IL-17F comprises (1) an Act1-tobacco etch virus (TEV) protease fusion protein, which upon active IL-17A/F binding to the IL-17RA/RC receptor heterodimer on a target cell, will be recruited to (2) IL-17RC fused with a TEV cleavage site(TSC)-tTA (a transcriptional transactivator that binds to tetracycline responsive element, or TRE), releasing tTA, which will subsequently translocate into the nucleus where a (3) TRE-dmCherry-PEST (destabilized mCherry) element is integrated into the genome. tTA binds to the TRE to drive dmCherry expression in the target modified cell. The three described components, Act1-TEV, IL-17RC-TSC-tTA, and TRE-dmCherry-PEST, along with IL-17RA, can be delivered by retro or lenti-viral vectors or guide-RNA directed nucleases, or recombinase systems, or by homologous recombination, into mouse embryonic fibroblasts (MEF) or other mammalian cell lines, establishing stable reporter cell lines. Using the same principle, IL-17RC-TSC-tTA can be replaced with IL-17RB-TSC-tTA in the described system to provide for IL-17E (IL-25) binding, and with IL-17RE-TSC-tTA for detecting IL-17C binding. A parallel approach involves attaching the fusion protein of —TSC-tTA to the RA component and three independent system cell lines generated by supplementing RC/RB/RE, Act1-TEV, and TRE-dmCherry reporter components. Each of the retroviral vectors can contain a unique selection or fluorescent marker to enable efficient generation and maintenance of stable cell lines (for example, Puromycin resistance for m/hIL-17RC(RB, RE)-TSC-tTA; EBFP for m/hAct1-TEV; Neomycin resistance and mVenus fluorescence for TRE-dmCherry-PEST, and Thy1.1 for m/hRA).

IL-6 = assay: IL-17A titration for activation of endogenous target gene IL-6 in MEF cells; assay type: cell-based, mouse; conditions: IL-17A titration (FIG. 3B)
From the text: FIGS. 3A and 3B provide construct schematics (designed for mouse genes), and cartoon depictions of the proteins encoded by the constructs, and a graph illustrating IL-17A titrations for activation of an endogenous target gene (IL-6) in MEF cells. […] FIG. 3A: schematics of functional units of the retroviral transfer plasmid constructs used to build the mouse ADIR system.

dmCherry signal produced (IL-17RA/RC; 0.4 ng/ml, after 24 hrs (FIG. 7)): 5.75%
dmCherry signal produced (IL-17RA/RC; 2 ng/ml, after 24 hrs (FIG. 7)): 24.6%
dmCherry signal produced (IL-17RA/RC; 10 ng/ml, after 24 hrs (FIG. 7)): 43.6%
cells turning on dmCherry signal (IL-17RA/RC; 50 ng/ml, 24 hr after plating (FIG. 5B)): 27.2%
dmCherry signal produced (IL-17RA/RC; 50 ng/ml, after 24 hrs (FIG. 7)): 55.1%
dmCherry signal produced (IL-17RA/RC; 100 ng/ml, after 24 hrs (FIG. 6I)): 25%
dmCherry signal produced (IL-17RA/RC; 100/2 ng/ml, after 24 hrs (FIG. 6H)): 24.5%
dmCherry signal produced (IL-17RA/RC; 100/(2^2) ng/ml, after 24 hrs (FIG. 6G)): 21.9%
dmCherry signal produced (IL-17RA/RC; 100/(2^3) ng/ml, after 24 hrs (FIG. 6F)): 19.9%
dmCherry produced (IL-17RA/RC; 100/(2^4) ng/ml, after 24 hrs (FIG. 6E)): 17.6%
dmCherry signal produced (IL-17RA/RC; 100/(2^5) ng/ml, after 24 hrs (FIG. 6D)): 12.6%
dmCherry signal produced (IL-17RA/RC; 100/(2^6) ng/ml, after 24 hrs (FIG. 6C)): 8.69%
dmCherry signal produced (IL-17RA/RC; 100/(2′7) ng/ml, after 24 hrs (FIG. 6B)): 5.36%
EC50 (sensitivity, dose-dependent dmCherry response) (IL-17RA/RC; mIL-17A/F system, three parameter [Agonist] vs. response fit (FIG. 6J)): 3.556 ng/mL
B1: IL-17A: mouse IL-17 family cytokine, cognate ligand of IL-17RA/RC, used as agonist in the mADIR-17 system (protein, UniProt Q62386 26-158, looked up)
Interleukin-17A: AAIIPQSSACPNTEAKDFLQNVKVNLKVFNSLGAKVSSRRPSDYLNRSTSPWTLHRNEDPDRYPSVIWEAQCRHQRCVNAEGKLDHHMNSVLIQQEILVLKREPESCPFTFRVEKMLVGVGCTCVASIVRQAA
activation of endogenous target gene (IL-6) (IL-6): upregulation of IL-6
